The source of these data is paper PMC4706845.

The target in experiment [1] is Vac14 from pig brain cytosol (UniProt F1S3E8). Kind of experiment: proteo-liposome recruitment, western blot band quantification. As to conditions: 2 % input bar shown for reference, parent: est. 21, read off a plot. On the technique in general: In western blotting, separated proteins are transferred to a membrane and probed.
For experiment [2], the target named is PIKfyve from pig brain cytosol. The description is as above. The following applies: 2 % input bar shown for reference, parent: est. 38, read off a plot.

Chain of UniProt F1S3E8 (F1S3E8 entry or part of it): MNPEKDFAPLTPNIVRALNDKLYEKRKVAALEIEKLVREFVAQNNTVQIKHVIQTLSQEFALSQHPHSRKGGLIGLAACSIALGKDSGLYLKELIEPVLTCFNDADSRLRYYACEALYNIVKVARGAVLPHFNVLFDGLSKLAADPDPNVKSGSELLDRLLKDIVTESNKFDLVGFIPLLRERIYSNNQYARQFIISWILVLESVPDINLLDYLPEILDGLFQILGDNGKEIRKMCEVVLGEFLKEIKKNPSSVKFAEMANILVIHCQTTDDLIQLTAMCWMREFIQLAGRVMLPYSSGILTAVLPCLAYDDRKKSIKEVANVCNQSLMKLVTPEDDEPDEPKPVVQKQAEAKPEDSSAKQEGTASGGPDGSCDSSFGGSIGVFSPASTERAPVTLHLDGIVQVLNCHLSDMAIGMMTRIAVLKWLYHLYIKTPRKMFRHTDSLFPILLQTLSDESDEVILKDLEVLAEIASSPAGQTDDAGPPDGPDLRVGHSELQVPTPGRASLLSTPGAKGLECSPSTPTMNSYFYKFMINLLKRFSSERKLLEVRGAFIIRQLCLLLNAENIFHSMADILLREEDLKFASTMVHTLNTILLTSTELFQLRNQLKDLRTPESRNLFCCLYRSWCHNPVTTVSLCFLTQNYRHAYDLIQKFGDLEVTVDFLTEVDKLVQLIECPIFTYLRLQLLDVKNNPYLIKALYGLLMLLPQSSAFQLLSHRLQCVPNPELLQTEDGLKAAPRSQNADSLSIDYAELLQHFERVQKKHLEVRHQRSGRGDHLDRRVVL

With “APP intracellular domain (AICD), full length AICD N36A; P37A”, the response is 3.5 a.u in experiment [1] and 8.5 a.u in experiment [2].

As to “APP intracellular domain (AICD), full length AICD T38A; Y39A”, the response in experiment [1] amounted to 0.7 a.u; in experiment [2], 3 a.u.

“APP intracellular domain (AICD), full length AICD Y34A; E35A”: the response in experiment [1] was found to be 1 a.u; in experiment [2], 2.5 a.u.
